T1: NLpoly 11S (12-A51T)
T1 construct: E. coli clarified lysate; also called 12S-51
T1 chain: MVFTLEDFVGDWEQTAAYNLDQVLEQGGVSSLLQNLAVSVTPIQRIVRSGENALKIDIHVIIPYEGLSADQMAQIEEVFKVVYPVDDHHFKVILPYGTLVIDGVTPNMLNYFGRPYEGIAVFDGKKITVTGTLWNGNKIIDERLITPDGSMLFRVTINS


Experiments:
NLpoly 11S (12-A51T) [1] = target: T1, NLpoly 11S (12-A51T); test: luminescence complementation titration; one site-specific binding fit
NLpoly 11S (12-A51T) [2] = target: T1, NLpoly 11S (12-A51T); test: luminescence complementation titration of synthetic NLpep on NLpoly E. coli lysate; one site-specific binding fit

| Binder | fold improved affinity over NLpolyWT:NLpepWT (NLpoly 11S (12-A51T) [1]) | Kd (NLpoly 11S (12-A51T) [2]) |
| --- | --- | --- |
| Ac-VSGWRLFKKIS-NH2 (synthetic peptide) [NLpep86] | 10000 fold | < 1 nM |
| Ac-VSGWRLFKKISN-NH2 (synthetic peptide) [NLpep80] | 10000 fold | < 1 nM |
